Numbering of substitutions follows the chain as printed. Square brackets hold non-standard residues; d marks the D form. GABA = NCCCC(=O)O

Common to all, as to experiment: positional peptide library pulldown on immobilised Nb, LC-MS of supernatant; signal ratio to control GFP-Nb (1 = not captured, near 0 = captured)
The target of one experiment is T1, BC2T H9G.
T1 construct: positional scanning library member
T1 peptide: Ac-PDRKAAVSGWQQ-NH2
Put shortly:
(§1)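 Unbound peptide left in supernatant after 1 h pulldown in PBS/0.01% CHAPS measured by reversed-phase LC-MS (8–30% eluent B gradient, 20 min).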

Another experiment addresses T2, BC2T Q11G.
T2 construct: positional scanning library member
T2 peptide: Ac-PDRKAAVSHWGQ-NH2
In outline:
as §1

The target of a further experiment is T3, BC2T W10V.
T3 construct: positional scanning library member
T3 peptide: Ac-PDRKAAVSHVQQ-NH2
Put shortly: as §1

A further experiment addresses T4, BC2T Q12V.
T4 construct: positional scanning library member
T4 peptide: Ac-PDRKAAVSHWQV-NH2
Put shortly: as §1

A further experiment deals with T5, BC2T W10(I/L1) (N-terminal acetyl; C-terminal amide).
T5 construct: positional scanning library member; I or L not resolved
In outline:
as §1

The target in a further experiment is T6, BC2T Q12(I/L2) (N-terminal acetyl; C-terminal amide).
T6 construct: positional scanning library member; I or L not resolved
Put shortly:
as §1

A further experiment deals with T7, BC2T W10M.
T7 construct: positional scanning library member
T7 peptide: Ac-PDRKAAVSHMQQ-NH2
Put shortly:
as §1

In another experiment the target is T8, BC2T Q11M.
T8 construct: positional scanning library member
T8 peptide: Ac-PDRKAAVSHWMQ-NH2
Put shortly: as §1

A further experiment has as its target T9, BC2T H9P.
T9 construct: positional scanning library member
T9 peptide: Ac-PDRKAAVSPWQQ-NH2
In outline:
as §1

The next experiment addresses T10, BC2T Q12P.
T10 construct: positional scanning library member
T10 peptide: Ac-PDRKAAVSHWQP-NH2
In outline: as §1

In the next experiment the target is T11, BC2T Q12F.
T11 construct: positional scanning library member
T11 peptide: Ac-PDRKAAVSHWQF-NH2
In outline: as §1

Another experiment concerns the target T12, BC2T S8W.
T12 construct: positional scanning library member
T12 peptide: Ac-PDRKAAVWHWQQ-NH2
Put shortly: as §1

The next experiment concerns the target T13, BC2T H9N.
T13 construct: positional scanning library member
T13 peptide: Ac-PDRKAAVSNWQQ-NH2
Put shortly:
as §1

The target in the next experiment is T14, BC2T W10Y.
T14 construct: positional scanning library member
T14 peptide: Ac-PDRKAAVSHYQQ-NH2
Put shortly: as §1

The target in the next experiment is T15, BC2T Q12Y.
T15 construct: positional scanning library member
T15 peptide: Ac-PDRKAAVSHWQY-NH2
In outline:
as §1

The next experiment addresses T16, BC2T S8C(Abu) (also: Abu described as gamma-amino butyric acid).
T16 construct: positional scanning library member
T16 peptide: Ac-PDRKAAV[GABA]HWQQ-NH2
In outline: as §1

For the next experiment, the target named is T17, BC2T H9C(Abu) (SMILES …).
T17 construct: positional scanning library member
T17 peptide: Ac-PDRKAAVS[GABA]WQQ-NH2
In outline:
as §1

Another experiment deals with T18, BC2T Q11C(Abu) (SMILES …).
T18 construct: positional scanning library member
T18 peptide: Ac-PDRKAAVSHW[GABA]Q-NH2
In outline: as §1

The target in a further experiment is T19, BC2T W10K.
T19 construct: positional scanning library member
T19 peptide: Ac-PDRKAAVSHKQQ-NH2
In outline:
as §1

The target in a further experiment is T20, BC2T Q11K.
T20 construct: positional scanning library member
T20 peptide: Ac-PDRKAAVSHWKQ-NH2
In outline:
as §1

The next experiment concerns the target T21, BC2T S8A.
T21 construct: positional scanning library member
T21 peptide: Ac-PDRKAAVAHWQQ-NH2
In outline: as §1

B1: BC2 nanobody (VHH)
VHH: QVQLVESGGGLVQPGGSLTLSCTASGFTLDHYDIGWFRQAPGKEREGVSCINNSDDDTYYADSVKGRFTIFMDNAKDTVYLQMNSLKPEDTAIYYCAEARGCKRGRYEYDFWGQGTQVTVSS
notes: immobilised on beads in this assay; also called BC2-Nb; BC2 nanotrap (immobilised)
With B1, the ratio with BC2T H9G was 0.4; with BC2T Q11G, 0.1; with BC2T W10V it was 1; with BC2T Q12V it was 0.1; in the experiment with BC2T W10(I/L1) it was 1; with BC2T Q12(I/L2), 0.1. In addition, the ratio with BC2T W10M worked out at 1; with BC2T Q11M, 0.1; in the experiment with BC2T H9P, 0.8; with BC2T Q12P, 0.1; in the experiment with BC2T Q12F, 0.2; with BC2T S8W, 0.6. Further, the ratio in the experiment with BC2T H9N amounted to 0.1; with BC2T W10Y it was 1; in the experiment with BC2T Q12Y, 0.1; with BC2T S8C(Abu), 0; with BC2T H9C(Abu), 0.2; in the experiment with BC2T Q11C(Abu) it was 0.1. Moreover, the ratio is 1 with BC2T W10K, 0 in the experiment with BC2T Q11K and 0 with BC2T S8A.

B2: BC2-NbR106S (VHH)
VHH: B1 VHH with R106S
notes: headlock mutant of BC2-Nb; immobilised on beads in this assay
For B2, the ratio with BC2T H9G is 0.8; with BC2T Q11G, 0.5; with BC2T W10V it was 1; in the experiment with BC2T Q12V, 0.2; with BC2T W10(I/L1), 1.1; with BC2T Q12(I/L2) it was 0.2. Besides, the ratio with BC2T W10M was 1.1; in the experiment with BC2T Q11M it was 0.3; with BC2T H9P it was 1; with BC2T Q12P, 0.2; in the experiment with BC2T Q12F, 0.4; in the experiment with BC2T S8W, 0.9. Besides, the ratio with BC2T H9N came to 0.3; in the experiment with BC2T W10Y, 1; in the experiment with BC2T Q12Y, 0.3; with BC2T S8C(Abu) it was 0.1; with BC2T H9C(Abu), 0.5; in the experiment with BC2T Q11C(Abu), 0.3. Moreover, the figures for the ratio with BC2T W10K, in the experiment with BC2T Q11K and with BC2T S8A were 1.1, 0.1 and 0.1, respectively.

The values are drawn from patent publication US20170137467A1 (CHROMOTEK, published 2017).
